# Test results: PMC10786891, “Massively parallel profiling of RNA-targeting CRISPR-Cas13d”
# T1: EsCas13d, nuclease-dead (Eubacterium siraeum, UniProt B0MS50, R295A;H300A;R849A;H854A)
# T1 sequence: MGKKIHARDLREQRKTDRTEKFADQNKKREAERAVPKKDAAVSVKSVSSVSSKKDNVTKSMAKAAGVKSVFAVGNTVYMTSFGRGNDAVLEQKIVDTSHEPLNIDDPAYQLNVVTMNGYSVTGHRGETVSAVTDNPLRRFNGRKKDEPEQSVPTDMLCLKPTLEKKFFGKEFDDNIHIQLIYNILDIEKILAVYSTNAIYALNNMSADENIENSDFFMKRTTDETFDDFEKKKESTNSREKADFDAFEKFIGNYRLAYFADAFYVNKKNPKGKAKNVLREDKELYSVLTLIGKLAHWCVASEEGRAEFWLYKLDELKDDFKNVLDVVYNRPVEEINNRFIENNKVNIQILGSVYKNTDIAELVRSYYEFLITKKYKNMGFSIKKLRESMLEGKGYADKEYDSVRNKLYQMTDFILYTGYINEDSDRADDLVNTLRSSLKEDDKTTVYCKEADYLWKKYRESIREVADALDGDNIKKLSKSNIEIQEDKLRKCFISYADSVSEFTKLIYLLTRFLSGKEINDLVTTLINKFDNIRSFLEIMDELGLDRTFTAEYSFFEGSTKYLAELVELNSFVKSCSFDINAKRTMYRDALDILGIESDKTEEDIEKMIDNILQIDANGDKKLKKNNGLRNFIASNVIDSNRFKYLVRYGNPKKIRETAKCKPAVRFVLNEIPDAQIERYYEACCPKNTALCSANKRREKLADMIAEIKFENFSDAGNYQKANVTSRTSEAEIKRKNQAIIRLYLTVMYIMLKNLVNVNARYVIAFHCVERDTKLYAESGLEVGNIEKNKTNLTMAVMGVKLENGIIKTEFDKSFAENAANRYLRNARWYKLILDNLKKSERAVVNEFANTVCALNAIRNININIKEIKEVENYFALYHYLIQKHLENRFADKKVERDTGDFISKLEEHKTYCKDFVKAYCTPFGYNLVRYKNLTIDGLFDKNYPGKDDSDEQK
# B1: target 1 insC 3' of 1,insU 3' of 1 (mixed)
# RNA 1: CACCCGUGCAAAAAUGCAGGGGUCUAAAACUGAGCGGAUAACCUCUCUAUGG
# RNA 2: GGGAAUGGAUCCACAUCUACGAAUUCGUACCAUAGAGAGGUUAUCCGCUCACUCCGAGAUCGGAAGAGCACACGU
# B2: target 1 insA 3' of 15,insA 3' of 3 (mixed)
# RNA 1: CACCCGUGCAAAAAUGCAGGGGUCUAAAACUGAGCGGAUAACCUCUCUAUGG
# RNA 2: GGGAAUGGAUCCACAUCUACGAAUUCGUACCAUAGAGAAGGUUAUCCGCUACACCGAGAUCGGAAGAGCACACGU
# B3: target 1 insC 3' of 11,insA 3' of 2 (mixed)
# RNA 1: CACCCGUGCAAAAAUGCAGGGGUCUAAAACUGAGCGGAUAACCUCUCUAUGG
# RNA 2: GGGAAUGGAUCCACAUCUACGAAUUCGUACCAUAGAGAGGUCUAUCCGCUCAACCGAGAUCGGAAGAGCACACGU
# B4: target 1 C4G,A16G (mixed)
# RNA 1: CACCCGUGCAAAAAUGCAGGGGUCUAAAACUGAGCGGAUAACCUCUCUAUGG
# RNA 2: GGGAAUGGAUCCACAUCUACGAAUUCGUACCAUAGGGAGGUUAUCCGGUCACCGAGAUCGGAAGAGCACACGU
# B5: target 1 U8C,A20C (mixed)
# RNA 1: CACCCGUGCAAAAAUGCAGGGGUCUAAAACUGAGCGGAUAACCUCUCUAUGG
# RNA 2: GGGAAUGGAUCCACAUCUACGAAUUCGUACCCUAGAGAGGUUACCCGCUCACCGAGAUCGGAAGAGCACACGU
# B6: target 1 insU 3' of 4,insG 3' of 3 (mixed)
# RNA 1: CACCCGUGCAAAAAUGCAGGGGUCUAAAACUGAGCGGAUAACCUCUCUAUGG
# RNA 2: GGGAAUGGAUCCACAUCUACGAAUUCGUACCAUAGAGAGGUUAUCCGCUUGCACCGAGAUCGGAAGAGCACACGU
# B7: target 1 insC 3' of 18,insA 3' of 13 (mixed)
# RNA 1: CACCCGUGCAAAAAUGCAGGGGUCUAAAACUGAGCGGAUAACCUCUCUAUGG
# RNA 2: GGGAAUGGAUCCACAUCUACGAAUUCGUACCAUACGAGAGAGUUAUCCGCUCACCGAGAUCGGAAGAGCACACGU
# B8: target 1 insC 3' of 19,insA 3' of 4 (mixed)
# RNA 1: CACCCGUGCAAAAAUGCAGGGGUCUAAAACUGAGCGGAUAACCUCUCUAUGG
# RNA 2: GGGAAUGGAUCCACAUCUACGAAUUCGUACCAUCAGAGAGGUUAUCCGCAUCACCGAGAUCGGAAGAGCACACGU
# B9: target 1 C2U,U19A (mixed)
# RNA 1: CACCCGUGCAAAAAUGCAGGGGUCUAAAACUGAGCGGAUAACCUCUCUAUGG
# RNA 2: GGGAAUGGAUCCACAUCUACGAAUUCGUACCAAAGAGAGGUUAUCCGCUUACCGAGAUCGGAAGAGCACACGU
# B10: target 1 A16C,A18U (mixed)
# RNA 1: CACCCGUGCAAAAAUGCAGGGGUCUAAAACUGAGCGGAUAACCUCUCUAUGG
# RNA 2: GGGAAUGGAUCCACAUCUACGAAUUCGUACCAUUGCGAGGUUAUCCGCUCACCGAGAUCGGAAGAGCACACGU
# B11: target 1 insC 3' of 22,insG 3' of 21 (mixed)
# RNA 1: CACCCGUGCAAAAAUGCAGGGGUCUAAAACUGAGCGGAUAACCUCUCUAUGG
# RNA 2: GGGAAUGGAUCCACAUCUACGAAUUCGUACCCGAUAGAGAGGUUAUCCGCUCACCGAGAUCGGAAGAGCACACGU
# B12: target 1 insC 3' of 11,insA 3' of 7 (mixed)
# RNA 1: CACCCGUGCAAAAAUGCAGGGGUCUAAAACUGAGCGGAUAACCUCUCUAUGG
# RNA 2: GGGAAUGGAUCCACAUCUACGAAUUCGUACCAUAGAGAGGUCUAUCACGCUCACCGAGAUCGGAAGAGCACACGU
# B13: target 1 A9C (mixed)
# RNA 1: CACCCGUGCAAAAAUGCAGGGGUCUAAAACUGAGCGGAUAACCUCUCUAUGG
# RNA 2: GGGAAUGGAUCCACAUCUACGAAUUCGUACCAUAGAGAGGUUCUCCGCUCACCGAGAUCGGAAGAGCACACGU
# B14: target 1 U11C,A18U (mixed)
# RNA 1: CACCCGUGCAAAAAUGCAGGGGUCUAAAACUGAGCGGAUAACCUCUCUAUGG
# RNA 2: GGGAAUGGAUCCACAUCUACGAAUUCGUACCAUUGAGAGGCUAUCCGCUCACCGAGAUCGGAAGAGCACACGU
# B15: target 1 insC 3' of 3,insA 3' of 3 (mixed)
# RNA 1: CACCCGUGCAAAAAUGCAGGGGUCUAAAACUGAGCGGAUAACCUCUCUAUGG
# RNA 2: GGGAAUGGAUCCACAUCUACGAAUUCGUACCAUAGAGAGGUUAUCCGCUCACACCGAGAUCGGAAGAGCACACGU
# B16: target 1 insC 3' of 20,insU 3' of 13 (mixed)
# RNA 1: CACCCGUGCAAAAAUGCAGGGGUCUAAAACUGAGCGGAUAACCUCUCUAUGG
# RNA 2: GGGAAUGGAUCCACAUCUACGAAUUCGUACCACUAGAGAGUGUUAUCCGCUCACCGAGAUCGGAAGAGCACACGU
# B17: target 1 insA 3' of 22,insA 3' of 12 (mixed)
# RNA 1: CACCCGUGCAAAAAUGCAGGGGUCUAAAACUGAGCGGAUAACCUCUCUAUGG
# RNA 2: GGGAAUGGAUCCACAUCUACGAAUUCGUACACAUAGAGAGGAUUAUCCGCUCACCGAGAUCGGAAGAGCACACGU
# B18: target 1 A1C,A9C (mixed)
# RNA 1: CACCCGUGCAAAAAUGCAGGGGUCUAAAACUGAGCGGAUAACCUCUCUAUGG
# RNA 2: GGGAAUGGAUCCACAUCUACGAAUUCGUACCAUAGAGAGGUUCUCCGCUCCCCGAGAUCGGAAGAGCACACGU
# B19: target 1 insC 3' of 1,insG 3' of 1 (mixed)
# RNA 1: CACCCGUGCAAAAAUGCAGGGGUCUAAAACUGAGCGGAUAACCUCUCUAUGG
# RNA 2: GGGAAUGGAUCCACAUCUACGAAUUCGUACCAUAGAGAGGUUAUCCGCUCACGCCGAGAUCGGAAGAGCACACGU
# B20: target 1 insU 3' of 9,insC 3' of 1 (mixed)
# RNA 1: CACCCGUGCAAAAAUGCAGGGGUCUAAAACUGAGCGGAUAACCUCUCUAUGG
# RNA 2: GGGAAUGGAUCCACAUCUACGAAUUCGUACCAUAGAGAGGUUAUUCCGCUCACCCGAGAUCGGAAGAGCACACGU
# B21: target 1 C7A,U8G (mixed)
# RNA 1: CACCCGUGCAAAAAUGCAGGGGUCUAAAACUGAGCGGAUAACCUCUCUAUGG
# RNA 2: GGGAAUGGAUCCACAUCUACGAAUUCGUACCAUAGAGAGGUUAGACGCUCACCGAGAUCGGAAGAGCACACGU
# B22: target 1 insG 3' of 11,insU 3' of 7 (mixed)
# RNA 1: CACCCGUGCAAAAAUGCAGGGGUCUAAAACUGAGCGGAUAACCUCUCUAUGG
# RNA 2: GGGAAUGGAUCCACAUCUACGAAUUCGUACCAUAGAGAGGUGUAUCUCGCUCACCGAGAUCGGAAGAGCACACGU
# B23: target 1 G5C,U11A (mixed)
# RNA 1: CACCCGUGCAAAAAUGCAGGGGUCUAAAACUGAGCGGAUAACCUCUCUAUGG
# RNA 2: GGGAAUGGAUCCACAUCUACGAAUUCGUACCAUAGAGAGGAUAUCCCCUCACCGAGAUCGGAAGAGCACACGU
# B24: target 1 U10C,G17U (mixed)
# RNA 1: CACCCGUGCAAAAAUGCAGGGGUCUAAAACUGAGCGGAUAACCUCUCUAUGG
# RNA 2: GGGAAUGGAUCCACAUCUACGAAUUCGUACCAUAUAGAGGUCAUCCGCUCACCGAGAUCGGAAGAGCACACGU
# Biological target: T1, EsCas13d, nuclease-dead
# Test: crRNA (strand 1, pre-loaded); Mg2+; 40 mM Tris-HCl pH 7.5, 150 mM NaCl, 6 mM MgCl2, 1 mM DTT, 0.1% Tween-20, 0.2 mg/ml BSA; 25 C; 10 min per concentration, then washed
# Conditions: tags: His6-TwinStrep-SUMO cleaved; N-terminal SNAP kept (SNAP-Surface 488); label: 3' end held by stalled T7 RNA polymerase
row,Binder,Kd
1,B1,10 ± 0.4 nM
2,B2,7.48 ± 0.34 nM
3,B3,38 ± 4 nM
4,B4,16.3 ± 3.2 nM
5,B5,65 ± 7 nM
6,B6,7.77 ± 0.31 nM
7,B7,24.4 ± 1.9 nM
8,B8,25 ± 6 nM
9,B9,26.5 ± 2.9 nM
10,B10,89 ± 11 nM
11,B11,27.3 ± 3.1 nM
12,B12,25.7 ± 1.5 nM
13,B13,15 ± 0.7 nM
14,B14,45 ± 6 nM
15,B15,9.8 ± 0.5 nM
16,B16,6.9 ± 0.7 nM
17,B17,47 ± 8 nM
18,B18,22.5 ± 3 nM
19,B19,9 ± 0.7 nM
20,B20,14.8 ± 0.7 nM
21,B21,9.8 ± 1.1 nM
22,B22,24.9 ± 0.8 nM
23,B23,46 ± 10 nM
24,B24,55 ± 4 nM
